The labels stand for the following.
B1: S. cerevisiae Rvb1p-Rvb2p complex (complex)
chain 1: MVAISEVKENPGVNSSNSGAVTRTAAHTHIKGLGLDESGVAKRVEGGFVGQIEAREACGVIVDLIKAKKMSGRAILLAGGPSTGKTALALAISQELGPKVPFCPLVGSELYSVEVKKTETLMENFRRAIGLRIKETKEVYEGEVTELTPEDAENPLGGYGKTISHVIVGLKSAKGTKTLRLDPTIYESIQREKVSIGDVIYIEANTGAVKRVGRSDAYATEFDLETEEYVPLPKGEVHKKKEIVQDVTLHDLDVANARPQGGQDVISMMGQLLKPKKTEITEKLRQEVNKVVAKYIDQGVAELIPGVLFIDEVNMLDIEIFTYLNKALESNIAPVVVLASNRGMTTVRGTEDVISPHGVPPDLIDRLLIVRTLPYDKDEIRTIIERRATVERLQVESSALDLLATMGTETSLRYALQLLAPCGILAQTSNRKEIVVNDVNEAKLLFLDAKRSTKILETSANYL
chain 2: MSIQTSDPNETSDLKSLSLIAAHSHITGLGLDENLQPRPTSEGMVGQLQARRAAGVILKMVQNGTIAGRAVLVAGPPSTGKTALAMGVSQSLGKDVPFTAIAGSEIFSLELSKTEALTQAFRKSIGIKIKEETELIEGEVVEIQIDRSITGGHKQGKLTIKTTDMETIYELGNKMIDGLTKEKVLAGDVISIDKASGKITKLGRSFARSRDYDAMGADTRFVQCPEGELQKRKTVVHTVSLHEIDVINSRTQGFLALFTGDTGEIRSEVRDQINTKVAEWKEEGKAEIVPGVLFIDEVHMLDIECFSFINRALEDEFAPIVMMATNRGVSKTRGTNYKSPHGLPLDLLDRSIIITTKSYNEQEIKTILSIRAQEEEVELSSDALDLLTKTGVETSLRYSSNLISVAQQIAMKRKNNTVEVEDVKRAYLLFLDSARSVKYVQENESQYIDDQGNVQISIAKSADPDAMDTTE
notes: Rvb1p, Saccharomyces cerevisiae; Rvb2p, Saccharomyces cerevisiae; also called yR2; R2; source: expressed and purified as previously described (Rivera-Calzada et al., 2017); copies: 3 + 3

What all share (settings): both partners purified
In test [1] the target is T1, S. cerevisiae TTT complex in which Tti1p carries a C-terminal FLAG-tag (S. cerevisiae, UniProt P53038 1-688; P36097 1-1038; P47168 1-421).
T1 construct: Tel2p, Saccharomyces cerevisiae; Tti1p, Saccharomyces cerevisiae; Tti2p, Saccharomyces cerevisiae; The cloning of the FLAG-tagged Tti1p is not described in the methods; also called FLAG-tagged TTT; FLAG-tagged Tti1p; source: Sf9, purified; not shown: FLAG, C-terminal, kept; copies: + +
T1 sequence (P53038 whole entry, chain 1 of 3): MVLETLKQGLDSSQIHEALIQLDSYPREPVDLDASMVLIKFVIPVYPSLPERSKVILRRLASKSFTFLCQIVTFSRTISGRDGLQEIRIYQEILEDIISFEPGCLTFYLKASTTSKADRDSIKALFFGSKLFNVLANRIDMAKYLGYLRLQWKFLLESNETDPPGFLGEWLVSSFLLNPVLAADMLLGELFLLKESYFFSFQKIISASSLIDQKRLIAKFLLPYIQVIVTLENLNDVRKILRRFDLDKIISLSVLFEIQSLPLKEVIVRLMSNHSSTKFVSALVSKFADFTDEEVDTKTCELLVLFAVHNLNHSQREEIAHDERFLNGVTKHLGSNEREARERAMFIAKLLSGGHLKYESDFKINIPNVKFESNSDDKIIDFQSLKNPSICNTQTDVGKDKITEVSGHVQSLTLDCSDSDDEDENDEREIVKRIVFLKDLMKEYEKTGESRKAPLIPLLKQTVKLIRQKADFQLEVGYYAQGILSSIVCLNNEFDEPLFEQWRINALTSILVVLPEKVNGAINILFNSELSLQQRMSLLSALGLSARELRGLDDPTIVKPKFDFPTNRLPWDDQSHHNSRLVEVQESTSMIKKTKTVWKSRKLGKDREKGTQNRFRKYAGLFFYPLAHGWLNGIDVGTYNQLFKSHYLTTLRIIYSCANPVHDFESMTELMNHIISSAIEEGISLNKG
T1 sequence (P36097 whole entry, chain 2 of 3): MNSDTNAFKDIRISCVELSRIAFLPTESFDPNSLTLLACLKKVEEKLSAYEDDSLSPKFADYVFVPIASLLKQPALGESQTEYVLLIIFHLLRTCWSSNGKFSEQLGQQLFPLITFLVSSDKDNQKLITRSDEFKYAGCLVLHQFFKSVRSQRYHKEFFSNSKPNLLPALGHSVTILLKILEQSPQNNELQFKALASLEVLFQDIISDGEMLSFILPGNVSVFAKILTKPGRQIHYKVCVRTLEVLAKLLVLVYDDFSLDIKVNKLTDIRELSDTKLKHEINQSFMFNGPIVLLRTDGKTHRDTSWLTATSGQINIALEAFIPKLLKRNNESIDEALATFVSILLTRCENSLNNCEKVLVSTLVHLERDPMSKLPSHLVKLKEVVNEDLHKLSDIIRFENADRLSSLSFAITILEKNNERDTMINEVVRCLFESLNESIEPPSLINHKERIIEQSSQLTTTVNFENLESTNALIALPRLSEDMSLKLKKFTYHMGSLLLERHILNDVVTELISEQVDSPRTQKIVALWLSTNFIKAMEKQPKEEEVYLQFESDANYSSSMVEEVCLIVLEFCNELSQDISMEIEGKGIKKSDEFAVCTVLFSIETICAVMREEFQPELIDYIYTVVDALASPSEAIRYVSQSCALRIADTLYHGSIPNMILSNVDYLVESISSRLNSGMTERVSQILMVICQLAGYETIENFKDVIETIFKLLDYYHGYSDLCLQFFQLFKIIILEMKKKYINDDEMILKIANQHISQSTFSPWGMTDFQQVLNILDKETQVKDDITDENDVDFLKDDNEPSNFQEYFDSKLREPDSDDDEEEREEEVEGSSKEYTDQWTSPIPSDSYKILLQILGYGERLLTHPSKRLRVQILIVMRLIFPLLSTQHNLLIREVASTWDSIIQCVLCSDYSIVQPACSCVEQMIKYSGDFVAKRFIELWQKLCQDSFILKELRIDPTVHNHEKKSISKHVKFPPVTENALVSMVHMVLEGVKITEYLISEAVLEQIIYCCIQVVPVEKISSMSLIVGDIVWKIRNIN
T1 sequence (P47168 whole entry, chain 3 of 3): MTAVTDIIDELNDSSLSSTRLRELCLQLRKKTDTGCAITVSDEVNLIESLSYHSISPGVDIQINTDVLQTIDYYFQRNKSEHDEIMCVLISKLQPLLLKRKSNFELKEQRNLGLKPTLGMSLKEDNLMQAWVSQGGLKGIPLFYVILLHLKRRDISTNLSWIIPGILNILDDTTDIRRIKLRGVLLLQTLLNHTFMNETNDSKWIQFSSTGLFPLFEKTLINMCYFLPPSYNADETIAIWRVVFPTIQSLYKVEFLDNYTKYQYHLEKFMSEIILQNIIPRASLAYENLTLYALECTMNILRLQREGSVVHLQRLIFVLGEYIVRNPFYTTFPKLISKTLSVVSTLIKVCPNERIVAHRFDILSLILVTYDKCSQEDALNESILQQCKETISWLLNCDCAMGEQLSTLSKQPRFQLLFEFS
Kind of test: co-IP; anti-FLAG beads hold yeast TTT by FLAG-tagged Tti1p; purified KmTOR-KmLst8, with or without yeast R2; Coomassie-stained SDS-PAGE.

Test [2] deals with T2, human TTI1, full length, untagged (human, UniProt O43156 1-1089).
T2 construct: TTI1, human, 1089 residues; In PDB 7OLE TTI1 is modelled as poly-alanine helices only; also called full-length untagged TTI1; source: Sf9, co-expressed with GST-TTI2 constructs (in lysate); co-expressed with TTI2 and TELO2 and purified within TTT
T2 sequence (O43156 whole entry): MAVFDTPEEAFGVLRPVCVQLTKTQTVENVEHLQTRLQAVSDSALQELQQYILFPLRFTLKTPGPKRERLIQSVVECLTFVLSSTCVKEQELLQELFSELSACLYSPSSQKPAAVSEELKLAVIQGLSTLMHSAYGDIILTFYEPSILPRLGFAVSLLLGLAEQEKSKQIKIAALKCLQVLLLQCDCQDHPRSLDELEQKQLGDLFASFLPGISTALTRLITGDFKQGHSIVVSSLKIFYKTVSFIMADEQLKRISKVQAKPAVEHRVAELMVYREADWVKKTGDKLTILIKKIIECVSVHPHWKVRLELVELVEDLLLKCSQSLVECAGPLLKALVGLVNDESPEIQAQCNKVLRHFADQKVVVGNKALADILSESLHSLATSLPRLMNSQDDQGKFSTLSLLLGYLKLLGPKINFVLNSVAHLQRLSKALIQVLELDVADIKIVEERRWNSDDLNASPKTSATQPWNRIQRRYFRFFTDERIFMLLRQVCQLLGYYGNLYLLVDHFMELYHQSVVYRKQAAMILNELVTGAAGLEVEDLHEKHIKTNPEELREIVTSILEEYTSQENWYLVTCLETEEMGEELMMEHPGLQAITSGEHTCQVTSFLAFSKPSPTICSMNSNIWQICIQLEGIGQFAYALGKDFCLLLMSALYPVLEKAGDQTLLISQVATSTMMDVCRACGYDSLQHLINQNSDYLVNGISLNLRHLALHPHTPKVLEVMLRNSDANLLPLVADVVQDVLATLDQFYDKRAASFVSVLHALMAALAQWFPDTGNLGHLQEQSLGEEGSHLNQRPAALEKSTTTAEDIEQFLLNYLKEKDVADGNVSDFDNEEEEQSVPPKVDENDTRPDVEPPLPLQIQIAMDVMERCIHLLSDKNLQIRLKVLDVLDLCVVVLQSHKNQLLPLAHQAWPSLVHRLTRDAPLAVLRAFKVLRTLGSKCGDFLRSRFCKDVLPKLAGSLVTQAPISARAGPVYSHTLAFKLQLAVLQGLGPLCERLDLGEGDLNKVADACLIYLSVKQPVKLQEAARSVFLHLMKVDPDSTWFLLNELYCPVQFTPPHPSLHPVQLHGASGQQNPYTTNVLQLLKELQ
Kind of test: cryo-EM structure; human R2 saturated with an excess of TTT; symmetry expansion and multi-body refinement; ADP in all six sites.

The target of test [3] is T3, human TTI1-TTI2 subcomplex (human, UniProt O43156 1-1089; Q6NXR4 1-508).
T3 construct: TTI1, human, 1089 residues; TTI2, human, 508 residues; Cloned as TTI1 and GST-TTI2; the methods name both a cleavage of the GST-tag and GST-TTI2-TTI1 as a sample of the pull-downs; also called T2; source: Sf9, co-expressed, purified
T3 sequence (O43156 whole entry, one chain of several): as the sequence (O43156 whole entry) above
Kind of test: pull-down; GST beads hold the GST-tag on TELO2 (5 μM); 2 μM RUVBL1/2, RUVBL1/2ΔDII or isolated DII domains; 20 mM HEPES pH 7.85, 140 mM NaCl, 0.001% Tween 20; 45 min at 4°C; Coomassie-stained SDS-PAGE.

In test [4] the target is T4, S. cerevisiae Tel2p-Tti1p-Tti2p complex (S. cerevisiae, UniProt P53038 1-688; P36097 1-1038; P47168 1-421).
T4 construct: Tel2p, Saccharomyces cerevisiae; Tti1p, Saccharomyces cerevisiae; Tti2p, Saccharomyces cerevisiae; Purified from insect cells to ensure post-translational modifications on Tel2p; The methods say in general that the GST-tag was cleaved; also called yTTT; yeast TTT; source: Sf9, co-infected with Tti1p-Tti2p and Tel2p viruses, purified; copies: + +
T4 sequence (P53038 whole entry, chain 1 of 3): as the sequence (P53038 whole entry, chain 1 of 3) above
T4 sequence (P36097 whole entry, chain 2 of 3): as the sequence (P36097 whole entry, chain 2 of 3) above
T4 sequence (P47168 whole entry, chain 3 of 3): as the sequence (P47168 whole entry, chain 3 of 3) above
Kind of test: pull-down; strep beads hold the tandem strep-tag on Tah1p in yeast TP or R2TP; 20 mM HEPES pH 7.85, 140 mM NaCl, 0.5 mM TCEP, 0.03% CHAPS; 45 min at 4°C; Coomassie-stained SDS-PAGE.

In test [5] the target is B1. Described as above.

For the molecule B1, in test [1], the binding result is on record as “binds”.

B2: human TTI2 (as in the purified TTT complex) (natural protein, UniProt Q6NXR4 1-508, looked up)
chain: MELDSALEAPSQEDSNLSEELSHSAFGQAFSKILHCLARPEARRGNVKDAVLKDLGDLIEATEFDRLFEGTGARLRGMPETLGQVAKALEKYAAPSKEEEGGGDGHSEAAEKAAQVGLLFLKLLGKVETAKNSLVGPAWQTGLHHLAGPVYIFAITHSLEQPWTTPRSREVAREVLTSLLQVTECGSVAGFLHGENEDEKGRLSVILGLLKPDLYKESWKNNPAIKHVFSWTLQQVTRPWLSQHLERVLPASLVISDDYQTENKILGVHCLHHIVLNVPAADLLQYNRAQVLYHAISNHLYTPEHHLIQAVLLCLLDLFPILEKTLHWKGDGARPTTHCDEVLRLILTHMEPEHRLLLRRTYARNLPAFVNRLGILTVRHLKRLERVIIGYLEVYDGPEEEARLKILETLKLLMQHTWPRVSCRLVVLLKALLKLICDVARDPNLTPESVKSALLQEATDCLILLDRCSQGRVKGLLAKIPQSCEDRKVVNYIRKVQQVSEGAPYNGT
notes: TTI2, human, 508 residues; In PDB 7OLE TTI2 is modelled as poly-alanine helices only; source: Sf9, purified within TTT
For the molecule B2, in test [2], the binding result is “binds”.

B3: human TELO2 (as in the purified TTT complex) (natural protein, UniProt Q9Y4R8 1-837, looked up)
chain: MEPAPSEVRLAVREAIHALSSSEDGGHIFCTLESLKRYLGEMEPPALPREKEEFASAHFSPVLRCLASRLSPAWLELLPHGRLEELWASFFLEGPADQAFLVLMETIEGAAGPSFRLMKMARLLARFLREGRLAVLMEAQCRQQTQPGFILLRETLLGKVVALPDHLGNRLQQENLAEFFPQNYFRLLGEEVVRVLQAVVDSLQGGLDSSVSFVSQVLGKACVHGRQQEILGVLVPRLAALTQGSYLHQRVCWRLVEQVPDRAMEAVLTGLVEAALGPEVLSRLLGNLVVKNKKAQFVMTQKLLFLQSRLTTPMLQSLLGHLAMDSQRRPLLLQVLKELLETWGSSSAIRHTPLPQQRHVSKAVLICLAQLGEPELRDSRDELLASMMAGVKCRLDSSLPPVRRLGMIVAEVVSARIHPEGPPLKFQYEEDELSLELLALASPQPAGDGASEAGTSLVPATAEPPAETPAEIVDGGVPQAQLAGSDSDLDSDDEFVPYDMSGDRELKSSKAPAYVRDCVEALTTSEDIERWEAALRALEGLVYRSPTATREVSVELAKVLLHLEEKTCVVGFAGLRQRALVAVTVTDPAPVADYLTSQFYALNYSLRQRMDILDVLTLAAQELSRPGCLGRTPQPGSPSPNTPCLPEAAVSQPGSAVASDWRVVVEERIRSKTQRLSKGGPRQGPAGSPSRFNSVAGHFFFPLLQRFDRPLVTFDLLGEDQLVLGRLAHTLGALMCLAVNTTVAVAMGKALLEFVWALRFHIDAYVRQGLLSAVSSVLLSLPAARLLEDLMDELLEARSWLADVAEKDPDEDCRTLALRALLLLQRLKNRLLPPASP
notes: TELO2, human; Only the N-terminal domain (TELO2-N) is seen in the map; source: Sf9, purified within TTT; not shown: GST, N-terminal, cleaved
Take B3: the binding result in test [2] is recorded as “binds”.

B4: human GST-TELO2 (natural protein, UniProt Q9Y4R8 1-837, looked up)
chain: MEPAPSEVRLAVREAIHALSSSEDGGHIFCTLESLKRYLGEMEPPALPREKEEFASAHFSPVLRCLASRLSPAWLELLPHGRLEELWASFFLEGPADQAFLVLMETIEGAAGPSFRLMKMARLLARFLREGRLAVLMEAQCRQQTQPGFILLRETLLGKVVALPDHLGNRLQQENLAEFFPQNYFRLLGEEVVRVLQAVVDSLQGGLDSSVSFVSQVLGKACVHGRQQEILGVLVPRLAALTQGSYLHQRVCWRLVEQVPDRAMEAVLTGLVEAALGPEVLSRLLGNLVVKNKKAQFVMTQKLLFLQSRLTTPMLQSLLGHLAMDSQRRPLLLQVLKELLETWGSSSAIRHTPLPQQRHVSKAVLICLAQLGEPELRDSRDELLASMMAGVKCRLDSSLPPVRRLGMIVAEVVSARIHPEGPPLKFQYEEDELSLELLALASPQPAGDGASEAGTSLVPATAEPPAETPAEIVDGGVPQAQLAGSDSDLDSDDEFVPYDMSGDRELKSSKAPAYVRDCVEALTTSEDIERWEAALRALEGLVYRSPTATREVSVELAKVLLHLEEKTCVVGFAGLRQRALVAVTVTDPAPVADYLTSQFYALNYSLRQRMDILDVLTLAAQELSRPGCLGRTPQPGSPSPNTPCLPEAAVSQPGSAVASDWRVVVEERIRSKTQRLSKGGPRQGPAGSPSRFNSVAGHFFFPLLQRFDRPLVTFDLLGEDQLVLGRLAHTLGALMCLAVNTTVAVAMGKALLEFVWALRFHIDAYVRQGLLSAVSSVLLSLPAARLLEDLMDELLEARSWLADVAEKDPDEDCRTLALRALLLLQRLKNRLLPPASP
notes: TELO2, human; The tagged subunit of m4, as the bait with which TTI1-TTI2 is found; also called GST-TEL2; not shown: GST, N-terminal, kept
In the case of B4, the binding result in test [3] is recorded as “binds”.

B5: S. cerevisiae Tah1p-Pih1p complex with a tandem strep-tag on the N terminus of Tah1p (complex)
chain 1: MSQFEKQKEQGNSLFKQGLYREAVHCYDQLITAQPQNPVGYSNKAMALIKLGEYTQAIQMCQQGLRYTSTAEHVAIRSKLQYRLELAQGAVGSVQIPVVEVDELPEGYDRS
chain 2: MADFLLRPIKQRHRNEDKYVSVDAADGSVSKIEPIADFVIKTKLLSANGPEKLQDGRKVFINVCHSPLVPKPEVDFNARIVFPLIIQNEWEIPIITSCYRMDHDKKGQECYVWDCCINSDCSRWICDDIQLREILVEWCLESCEIRDSVVLCRDRIAFPKMKKKGAELPALEVLNDELHQDYKAKMHKIIEEEAGDPMSILRGRNDDGDDNNDPDDGTLPPLFPIENKISGAKIEEIDKNEIAHRNLKQAPAPAPAPHEQQEDVPEYEVKMKRFKGAAYKLRILIENKAPNSKPDRFSPSYNFAENILYINGKLSIPLPRDIVVNAADIKIFHIRKERTLYIYI
notes: Tah1p, Saccharomyces cerevisiae; Pih1p, Saccharomyces cerevisiae; also called yTP; TP; source: expressed and purified as previously described (Rivera-Calzada et al., 2017); not shown: tandem Strep, N-terminal, kept
Consider B5, for which the binding result in test [4] and in test [5] was “binds” throughout.

The record behind these values is PMC8278493, “Structure of the TELO2-TTI1-TTI2 complex and its function in TOR recruitment to the R2TP chaperone” (Cell Reports, 2021).
